Data on 14 molecules can be found in patent US11278600B2, “Human alpha-galactosidase variants” (Codexis, Inc., priority 2014, dated 2022).

Holding throughout (assay type): biochemical
Data set [1] can be described thus: HTP-analysis of yeast culture supernatants, no challenge (MUGal hydrolysis). The following applies: activity of the variant/activity of WT GLA (SEQ ID NO: 5), yeast supernatant. A digest of the protocol:
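GLA variants expressed in yeast INVSc1, secreted into SD-Ura broth over 66-84 h at 30° C; clarified supernatants tested without challenge. Supernatant mixed with McIlvaine buffer pH 4.8 and 2 mM MUGal (citrate/KCl, pH 4.6), 37° C for 30-180 min, carbonate-quenched, fluorescence Ex 355/Em 448 nm.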

Data set [2] in a line: HTP-analysis of supernatants pretreated with base (MUGal hydrolysis). The following applies: challenge at pH 7.1; activity of the variant/activity of WT GLA (SEQ ID NO: 5); yeast supernatant. A digest of the protocol:
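Supernatants from INVSc1 yeast expressing GLA variants (SD-Ura, 66-84 h, 30° C) were mixed with McIlvaine buffer pH 7.0-8.2 or 200 mM sodium bicarbonate pH 9.1-9.7 and held 1-18 h at 37° C. Residual activity was then measured on MUGal at pH 4.8/4.3, 37° C, 30-180 min, by fluorescence (Ex 355/Em 448 nm).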

The nature of data set [3]: HTP-analysis of supernatants pretreated with acid (MUGal hydrolysis). The following applies: challenge at pH 4.2; activity of the variant/activity of WT GLA (SEQ ID NO: 5); yeast supernatant. In outline: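 MUGal hydrolysis was tracked by fluorescence (Ex 355 nm, Em 448 nm) after a 30-180 min reaction at 37° C. in pH 4.8 McIlvaine/citrate buffer, stopped with 1 M sodium carbonate. Beforehand, yeast (INVSc1) culture supernatants carrying GLA variants were held 1-3 h at 37° C. in acidic McIlvaine buffer, pH 3.3-4.3.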

Residue numbers refer to the chain shown, from its start.

B1: 177 (protein)
chain: LDNGLARTPTMGWLHWERFMCNLDCQEEPDSCISEKLFMEMAELMVSEGWKDAGYEYLCIDDCWMAPQRDSEGRLQADPQRFPHGIRQLANYVHDKGLKLGIYADVGNKTCAGFPGSFGYYDIDAQTFADWGVDLLKFDGCYCDSLENLADGYKHMSLALNRTGRSIVYSCEWPLYMWPFQKPNYTEIRQYCNHWRNFADIDDSWKSIKSILDWTSFNQERIVDVAGPGGWNDPDMLVIGNFGLSWNQQVTQMALWAIMAAPLFMSNDLRHISPQAKALLQDKDVIAINQDPLGKQGYQLRQGDNFEVWERPLSGLAWAVAMINRQEIGGPRSYTIAVASLGKGVACNPACFITQLLPVKRKLGFYEWTSRLRSHINPTGTVLLQLENTMQMSKDLLL
modifications: Synthetic Polypeptide sequence of Variant No. 177 of mature Human GLA
In the case of B1, the “Relative Activity of GLA Variants After No Challenge (NC)” value in data set [1] is “+ (+ = 0.5 to 1.5 relative activity over WT GLA (SEQ ID NO: 5))”. Besides, in data set [2], the “Relative Activity of GLA Variants After Challenge at pH 7.1” value (from here on “Relative Activity … at pH 7.1”) is “+ (+ = 0.5 to 1.5 relative activity over WT GLA (SEQ ID NO: 5))”. In addition, in data set [3], the “Relative Activity of GLA Variants After Challenge at pH 4.2” value (“Relative Activity … at pH 4.2” for short) is listed as “++ (++ = >1.5 to 2.5 relative activity over WT GLA (SEQ ID NO: 5))”.

B2: 188 (protein)
chain: B1 chain with D95S, V359E
modifications: Synthetic Polypeptide sequence of Variant No. 188 of mature Human GLA
Regarding B2, in data set [1], the “Relative Activity of GLA Variants After No Challenge (NC)” value was “+ (+ = 0.5 to 1.5 relative activity over WT GLA (SEQ ID NO: 5))”. Moreover, in data set [2], the “Relative Activity … at pH 7.1” value is “+ (+ = 0.5 to 1.5 relative activity over WT GLA (SEQ ID NO: 5))”. The “Relative Activity … at pH 4.2” value in data set [3] was “+ (+ = 0.5 to 1.5 relative activity over WT GLA (SEQ ID NO: 5))”.

B3: 184 (protein)
chain: B1 chain with D95S, V168A
modifications: Synthetic Polypeptide sequence of Variant No. 184 of mature Human GLA
With B3, the “Relative Activity of GLA Variants After No Challenge (NC)” value in data set [1] was “++ (++ = >1.5 to 2.5 relative activity over WT GLA (SEQ ID NO: 5))”. The “Relative Activity … at pH 7.1” value in data set [2] was “+ (+ = 0.5 to 1.5 relative activity over WT GLA (SEQ ID NO: 5))”. The “Relative Activity … at pH 4.2” value in data set [3] is given as “+ (+ = 0.5 to 1.5 relative activity over WT GLA (SEQ ID NO: 5))”.

B4: 181 (protein)
chain: B1 chain with D95S, T369S
modifications: Synthetic Polypeptide sequence of Variant No. 181 of mature Human GLA
Turning to B4, the “Relative Activity of GLA Variants After No Challenge (NC)” value in data set [1] is “+ (+ = 0.5 to 1.5 relative activity over WT GLA (SEQ ID NO: 5))”. The “Relative Activity … at pH 7.1” value in data set [2] is “+ (+ = 0.5 to 1.5 relative activity over WT GLA (SEQ ID NO: 5))”. Also, in data set [3], the “Relative Activity … at pH 4.2” value is “+ (+ = 0.5 to 1.5 relative activity over WT GLA (SEQ ID NO: 5))”.

B5: 189 (protein)
chain: B1 chain with V93I, D95S
modifications: Synthetic Polypeptide sequence of Variant No. 189 of mature Human GLA
Take B5: the “Relative Activity of GLA Variants After No Challenge (NC)” value in data set [1] is “+ (+ = 0.5 to 1.5 relative activity over WT GLA (SEQ ID NO: 5))”. Moreover, the “Relative Activity … at pH 7.1” value in data set [2] is given as “+ (+ = 0.5 to 1.5 relative activity over WT GLA (SEQ ID NO: 5))”. In addition, the “Relative Activity … at pH 4.2” value in data set [3] is on record as “+ (+ = 0.5 to 1.5 relative activity over WT GLA (SEQ ID NO: 5))”.

B6: 190 (protein)
chain: B1 chain with D95S, W178H
modifications: Synthetic Polypeptide sequence of Variant No. 190 of mature Human GLA
As to B6, in data set [1], the “Relative Activity of GLA Variants After No Challenge (NC)” value is “++ (++ = >1.5 to 2.5 relative activity over WT GLA (SEQ ID NO: 5))”. Moreover, in data set [2], the “Relative Activity … at pH 7.1” value is on record as “++ (++ = >1.5 to 2.5 relative activity over WT GLA (SEQ ID NO: 5))”. Moreover, the “Relative Activity … at pH 4.2” value in data set [3] is recorded as “+ (+ = 0.5 to 1.5 relative activity over WT GLA (SEQ ID NO: 5))”.

B7: 178 (protein)
chain: B1 chain with D95E
modifications: Synthetic Polypeptide sequence of Variant No. 178 of mature Human GLA
Turning to B7, the “Relative Activity of GLA Variants After No Challenge (NC)” value in data set [1] is given as “++ (++ = >1.5 to 2.5 relative activity over WT GLA (SEQ ID NO: 5))”. The “Relative Activity … at pH 7.1” value in data set [2] was “++ (++ = >1.5 to 2.5 relative activity over WT GLA (SEQ ID NO: 5))”. In addition, the “Relative Activity … at pH 4.2” value in data set [3] is recorded as “+++ (+++ = >2.5 relative activity over WT GLA (SEQ ID NO: 5))”.

B8: 183 (protein)
chain: B1 chain with D95S, V133I
modifications: Synthetic Polypeptide sequence of Variant No. 183 of mature Human GLA
B8: in data set [1], the “Relative Activity of GLA Variants After No Challenge (NC)” value is reported as “+ (+ = 0.5 to 1.5 relative activity over WT GLA (SEQ ID NO: 5))”. Moreover, the “Relative Activity … at pH 7.1” value in data set [2] is “+ (+ = 0.5 to 1.5 relative activity over WT GLA (SEQ ID NO: 5))”. Also, the “Relative Activity … at pH 4.2” value in data set [3] is “+ (+ = 0.5 to 1.5 relative activity over WT GLA (SEQ ID NO: 5))”.

B9: 182 (protein)
chain: B1 chain with D95S, T389S
modifications: Synthetic Polypeptide sequence of Variant No. 182 of mature Human GLA
For the molecule B9, in data set [1], the “Relative Activity of GLA Variants After No Challenge (NC)” value is on record as “++ (++ = >1.5 to 2.5 relative activity over WT GLA (SEQ ID NO: 5))”. Besides, the “Relative Activity … at pH 7.1” value in data set [2] is recorded as “+ (+ = 0.5 to 1.5 relative activity over WT GLA (SEQ ID NO: 5))”. The “Relative Activity … at pH 4.2” value in data set [3] was “+ (+ = 0.5 to 1.5 relative activity over WT GLA (SEQ ID NO: 5))”.

B10: 180 (protein)
chain: B1 chain with D95S, T369D
modifications: Synthetic Polypeptide sequence of Variant No. 180 of mature Human GLA
As to B10, in data set [1], the “Relative Activity of GLA Variants After No Challenge (NC)” value is given as “++ (++ = >1.5 to 2.5 relative activity over WT GLA (SEQ ID NO: 5))”. Also, the “Relative Activity … at pH 7.1” value in data set [2] is “+++ (+++ = >2.5 relative activity over WT GLA (SEQ ID NO: 5))”. Also, the “Relative Activity … at pH 4.2” value in data set [3] is “++ (++ = >1.5 to 2.5 relative activity over WT GLA (SEQ ID NO: 5))”.

B11: 185 (protein)
chain: B1 chain with D95S, V168L
modifications: Synthetic Polypeptide sequence of Variant No. 185 of mature Human GLA
With B11, the “Relative Activity of GLA Variants After No Challenge (NC)” value in data set [1] is listed as “+ (+ = 0.5 to 1.5 relative activity over WT GLA (SEQ ID NO: 5))”. Besides, the “Relative Activity … at pH 7.1” value in data set [2] is given as “+ (+ = 0.5 to 1.5 relative activity over WT GLA (SEQ ID NO: 5))”. In addition, the “Relative Activity … at pH 4.2” value in data set [3] is recorded as “++ (++ = >1.5 to 2.5 relative activity over WT GLA (SEQ ID NO: 5))”.

B12: 187 (protein)
chain: B1 chain with D95S, V345Y
modifications: Synthetic Polypeptide sequence of Variant No. 187 of mature Human GLA
Turning to B12, the “Relative Activity of GLA Variants After No Challenge (NC)” value in data set [1] is “+ (+ = 0.5 to 1.5 relative activity over WT GLA (SEQ ID NO: 5))”. Moreover, the “Relative Activity … at pH 7.1” value in data set [2] is on record as “+ (+ = 0.5 to 1.5 relative activity over WT GLA (SEQ ID NO: 5))”. For the same molecule, the “Relative Activity … at pH 4.2” value in data set [3] was “+ (+ = 0.5 to 1.5 relative activity over WT GLA (SEQ ID NO: 5))”.

B13: 179 (protein)
chain: B1 chain with D95Q
modifications: Synthetic Polypeptide sequence of Variant No. 179 of mature Human GLA
As for B13, the “Relative Activity of GLA Variants After No Challenge (NC)” value in data set [1] was “+ (+ = 0.5 to 1.5 relative activity over WT GLA (SEQ ID NO: 5))”. Also, the “Relative Activity … at pH 7.1” value in data set [2] is given as “+ (+ = 0.5 to 1.5 relative activity over WT GLA (SEQ ID NO: 5))”. Also, the “Relative Activity … at pH 4.2” value in data set [3] is “+ (+ = 0.5 to 1.5 relative activity over WT GLA (SEQ ID NO: 5))”.

B14: 186 (protein)
chain: B1 chain with D95S, V345N
modifications: Synthetic Polypeptide sequence of Variant No. 186 of mature Human GLA
On to B14, for which the “Relative Activity of GLA Variants After No Challenge (NC)” value in data set [1] is “++ (++ = >1.5 to 2.5 relative activity over WT GLA (SEQ ID NO: 5))”. Further, the “Relative Activity … at pH 7.1” value in data set [2] is recorded as “+++ (+++ = >2.5 relative activity over WT GLA (SEQ ID NO: 5))”. For the same molecule, the “Relative Activity … at pH 4.2” value in data set [3] is given as “++ (++ = >1.5 to 2.5 relative activity over WT GLA (SEQ ID NO: 5))”.
